This is an account of results in patent US20240247250.

Where two headings read alike, the source gives them in different places.

In data set [1] the target is tRNA-guanine transglycosylase (TGT) (Escherichia coli) (UniProt P0A847). The settings on record: urea PAGE shift.
Data set [2] has the same target. The following applies: urea PAGE shift; best of composite hairpins.

tRNA-guanine transglycosylase (TGT) (Escherichia coli), sequence (P0A847 whole entry): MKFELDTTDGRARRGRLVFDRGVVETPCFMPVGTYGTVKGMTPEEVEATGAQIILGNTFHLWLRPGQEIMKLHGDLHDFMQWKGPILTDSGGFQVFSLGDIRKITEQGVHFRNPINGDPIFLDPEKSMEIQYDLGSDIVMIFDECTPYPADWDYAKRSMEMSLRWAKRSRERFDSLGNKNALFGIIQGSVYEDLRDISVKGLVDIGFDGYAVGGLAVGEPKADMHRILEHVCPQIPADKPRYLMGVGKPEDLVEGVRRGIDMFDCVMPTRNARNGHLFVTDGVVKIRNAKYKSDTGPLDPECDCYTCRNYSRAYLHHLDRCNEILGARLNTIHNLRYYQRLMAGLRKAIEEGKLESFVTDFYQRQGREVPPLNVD

Regarding Asp 17 nt DNA hairpin, the activity in data set [1] worked out at 40 % labeled.
On the same count and under the same terms, in the case of His 17 nt DNA hairpin it was 40 % labeled.
As for His stem-Asp loop hairpin, the activity in data set [2] is > 50 % labeled.
On to Tyr 17 nt DNA hairpin, for which the activity in data set [1] (printed as ~-5%) worked out at 5 % labeled.
